Data on one molecule can be found in patent US20210187071A1, “COMPOSITIONS COMPRISING MDA-7/IL-24 PROTEIN AND METHODS OF USE” (VIRGINIA COMMONWEALTH UNIVERSITY, priority 2017, published 2021).

Entries after “also recorded” stand apart in the source; their conditions may differ. Like-named read-outs stand apart in the source and are kept apart here.

The test system of data set [1] is bone marrow cells. Nature of the data set: Osteoclast differentiation of bone marrow cells isolated from treated PC3-ML tumor bearing animals (TRAP staining, TRACP assay). The class given is in vivo, mice. Particulars: MDA-7/IL-24 protein 5 mg/kg, 6 doses; differentiation induced ex vivo. As to the method:
Osteoclast Formation Assays: Bone marrow cells were induced for osteoclast differentiation using previously described protocols (28). Briefly, bone marrow cells were cultured in minimal essential medium (α-MEM) with 10% fetal bovine serum with MCSF (10 ng/ml) for 24 hrs. They were subsequently treated with RANKL (100 ng/ml) for 5 days. Cultured cells were fixed and stained for TRAP (Tartarate-resistant acid phosphatase). TRAP staining was performed following the specific protocol provided with the kit (Sigma-Aldrich, Inc. St. Louis, Mo., USA). Multinucleated cells, considered as differentiated osteoclasts, were counted manually under bright field microscope. TRACP enzymatic assays were done as per the manufacturer's instructions (R & D, Minneapolis, Minn., USA).
This was quantified by counting the number of osteoclasts (FIG. 2D) and also measuring TRACP osteoclastic enzymatic activity (FIG. 2E). These initial results indicated a potential function of MDA-7/IL-24 in regulating osteoclast differentiation.
Suppression of osteoclast differentiation was also evaluated using an in vivo metastatic model (FIG. 4C). Bone marrow cells were isolated after sacrifice of mice and osteoclast differentiation was induced. […] This was evident by counting osteoclasts (FIG. 4C) and also by measuring TRACP osteoclastic enzymatic activity (FIG. 4D).

Data set [2] has as its system PC3-ML cells. The following applies: for bone metastasis (BLI signal / luciferase intensity): MDA-7/IL-24 protein 5 mg/kg tail vein, 6 doses over three weeks, vs untreated control; for survival: MDA-7/IL-24 protein 5 mg/kg, 6 doses; for toxicity in animals: delivered repeatedly systemically in mice. As to the method:
In vivo Metastasis Studies: All animal studies were approved by the Institutional Animal Care and Use Committee (Virginia Commonwealth University). For experimental bone metastasis assays, 6-8-week-old male athymic nude mice (purchased from Harlan, USA) were injected with 1×10^5 PC3-ML cells stably expressing firefly luciferase gene through an intracardiac route. For determining the therapeutic activity of MDA-7/IL-24 protein, mice received an intravenous injection of recombinant protein (5 mg/kg), one day after implantation of cells. Animals were treated with therapeutics for a total of 6 times (2× a week for first 3 weeks). […] Image of the bone region was monitored by a BLI (bioluminescence imaging) method using an IVIS® imaging system (15, 19, 20).
In this model, stable luciferase expressing PC3-ML cells were injected in male athymic nude mice through an intracardiac route to produce bone metastases. The expansion, invasion, and migration of PC3-ML cells were monitored by IVIS® imaging (15, 20, 23). […] BLI imaging followed development of metastatic lesions in bone. […] To determine the effect of MDA-7/IL-24 on primary bone marrow in animals, cells from the bone cavity were isolated and treated with His-MDA-7 at different doses in vitro.

[3] abbreviates: listed as recombinant MDA-7/IL-24.

B1: MDA-7/IL-24 protein: Recombinant His-tagged MDA-7/IL-24 protein purified on Ni-NTA from supernatant of IM-PHFA cells infected with Ad.5-His-mda-7 (protein)
chain: QEFHFGPCQVKGVVPQKLWEAFWAVKDTMQAQDNITSARLLQQEVLQNVSDAESCYLVHTLLEFYLKTVFKNYHNRTVEVRTLKSFSTLANNFVLIVSQLQPSQENEMFSIRDSAHRRFLLFRRAFKQLDVEAALTKALGEVDILLTWMQKFYKL
On to B1, for which, in data set [1], the “number of osteoclasts from bone marrow of treated animals” value is listed as “significantly fewer osteoclasts” and the “osteoclastic activity of bone marrow from treated animals” value is reported as “less osteoclastic activity”. In data set [2], the “bone metastasis (BLI signal / luciferase intensity)” value is reported as “significantly fewer metastatic lesions”, the survival result is given as “enhancement of survival” and the toxicity in animals result was “non-toxic”. In data set [2] (listed as MDA-7/IL-24), the “bone metastasis (BLI signal / luciferase intensity)” value was “significantly less evidence of metastasis; also recorded: a significant decrease in metastasis; also recorded: significant inhibition in luciferase intensity” and the survival result is on record as “increased”. Moreover, in data set [2] (setting [3]), the “bone metastasis (BLI signal / luciferase intensity)” value is reported as “significantly less metastatic lesions in their femurs; also recorded: significantly reduced the occurrence of bone metastasis” and the toxicity in animals entry was “without promoting toxicity”. Further, the “development of lung metastases” value in data set [2] (six doses of MDA-7/IL-24 protein 5 mg/kg) is reported as “suppressed development of lung metastases”.
